The test deals with isolated VL-domain of the reshaped anti-lysozyme Fv-fragment (HuVLLYS). The test can be described thus: formaldehyde crosslinking of Fv, overloaded SDS gel.

Some results are limits rather than exact numbers.

B1: isolated VL-domain of the reshaped anti-lysozyme Fv-fragment (HuVLLYS) (protein)
VL: DIQMTQSPSSLSASVGDRVTITCRASGNIHNYLAWYQQKPGKAPKLLIYYTTTLADGVPSRFSGSGSGTDFTFTISSLQPEDIATYYCQHFWSTPRTFGQGTKVEIK
In the case of B1, the fraction of crosslinked material was less than 5%.

These data come from patent publication US6982321.
